Experimental findings from patent US10724034B2, “Genetic encoding of chemical post-translational modification for phage-displayed libraries” (THE GOVERNORS OF THE UNIVERSITY OF ALBERTA, priority 2014, dated 2020) are described below.

Ends that are not written are not given here. Gal = galactose

The target in assay [1] is T1, human Galectin-3 protein (human, UniProt P17931 2-250, limits assumed).
T1 construct: also called Gal3
In words: ELISA-like competition with HRP-Lac on immobilised Galectin-3; reference MeGal. Put shortly: (§1)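 Values are the fold difference in inhibition compared with a known Galectin-3 reference ligand tested in the same assay. In this ELISA-like competition format, test molecules competed with a bound lactose-conjugated horseradish peroxidase probe on plates coated at 10 μg/ml with the human Galectin-3 carbohydrate recognition domain, and a drop in colour development marked competition.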

Assay [2] concerns the target T1, human Galectin-3 protein. The assay can be described thus: ELISA-like competition with HRP-Lac on immobilised Galectin-3; reference lactose. Put shortly: as §1
In assay [3] the target is T1, human Galectin-3 protein. The assay can be described thus: ELISA-like competition with HRP-Lac on immobilised Galectin-3; reference Lacto-N-Tetraose. The gist of the method:
as §1

In assay [4] the target is T1, human Galectin-3 protein. The assay can be described thus: ELISA-like competition: inhibition of soluble HRP-Lactose binding to immobilised Galectin-3. Put shortly:
(§2)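 The carbohydrate recognition domain of human Galectin-3 was coated at 10 μg/ml onto polystyrene 96-well plates for an ELISA-like competition assay. Test molecules competed with a lactose-conjugated horseradish peroxidase probe for binding, and a decrease in colour development was read as competition. Competition curves gave the half-maximal inhibitory concentration.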

Assay [5] addresses T1, human Galectin-3 protein. The assay can be described thus: competition ELISA: HRP-Lactose binding to plate-coated Galectin-3 [lower left panel]. The gist of the method:
as §2

Assay [6] deals with T1, human Galectin-3 protein. In words: competition ELISA: HRP-Lactose binding to plate-coated Galectin-3 [lower right panel]. Put shortly: as §2
Assay [7] concerns the target T1, human Galectin-3 protein. The assay can be described thus: competition ELISA: HRP-Lactose binding to plate-coated Galectin-3 [upper right panel]. The gist of the method:
as §2

T1 sequence (P17931 2-250 limits assumed): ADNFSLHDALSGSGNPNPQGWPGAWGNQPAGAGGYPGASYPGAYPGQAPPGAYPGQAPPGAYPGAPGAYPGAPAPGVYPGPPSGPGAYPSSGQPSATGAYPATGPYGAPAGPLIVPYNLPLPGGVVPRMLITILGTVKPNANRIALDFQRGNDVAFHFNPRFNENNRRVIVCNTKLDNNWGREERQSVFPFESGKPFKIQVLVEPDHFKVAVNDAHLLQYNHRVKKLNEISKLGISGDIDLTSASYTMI

B1: Gal-PAPT (galactose-modified glycopeptide) (peptide)
peptide: Gal-PAPT
modifications: also: exact galactose derivative not given here
notes: Synthetic glycan-peptide conjugate; also called glycopeptide Gal-PAPT
In the case of B1, the “fold better inhibition than MeGal” value in assay [1] is above 1500 fold. The “fold better inhibition than Lactose” value in assay [2] stood at 30 fold. Also, the “fold better inhibition than LNT” value in assay [3] is 5 fold. This molecule came in with an EC50 in assay [4] of 14 µM. The “IC50 (read off the curve)” value in assay [5], in assay [6] and in assay [7] was around 20 µM throughout.
